# According to patent US20250326865A1, “C-MET PROTEIN-BINDING PEPTIDE COMPLEX” (PeptiDream Inc., priority 2021, published 2025):
# Starred links: 1 amine or outer side, 2 acyl side, 3 side chain; linkers in the order of their positions; H or OH if unused. Positions of bridges follow the written chain, without caps; N, C: chain ends. Non-standard residues stand in square brackets, D forms with d. Chains are numbered I, II in the order given. No end group written: not given here. CO(CH2)2(OCH2CH2)17CO = O=C(CCOCCOCCOCCOCCOCCOCCOCCOCCOCCOCCOCCOCCOCCOCCOCCOCCOCCC(=O)[*:2])[*:1]; CO(CH2CH2O)9CH2CH2CO = O=C(CCOCCOCCOCCOCCOCCOCCOCCOCCOCCC(=O)[*:2])[*:1]; PEG12 = NCCOCCOCCOCCOCCOCCOCCOCCOCCOCCOCCOCCOCCC(=O)O; NMeF = CN[C@@H](Cc1ccccc1)C(=O)O; Ahp(2) = CCCCC[C@H](N)C(=O)O; hLys = NCCCCC[C@H](N)C(=O)O; NMeC = CN[C@@H](CS)C(=O)O
# Biological target: human c-Met protein (human, UniProt P08581 25-1390)
# Experiment: cell-based or functional assay
# human c-Met protein, sequence (P08581 25-1390): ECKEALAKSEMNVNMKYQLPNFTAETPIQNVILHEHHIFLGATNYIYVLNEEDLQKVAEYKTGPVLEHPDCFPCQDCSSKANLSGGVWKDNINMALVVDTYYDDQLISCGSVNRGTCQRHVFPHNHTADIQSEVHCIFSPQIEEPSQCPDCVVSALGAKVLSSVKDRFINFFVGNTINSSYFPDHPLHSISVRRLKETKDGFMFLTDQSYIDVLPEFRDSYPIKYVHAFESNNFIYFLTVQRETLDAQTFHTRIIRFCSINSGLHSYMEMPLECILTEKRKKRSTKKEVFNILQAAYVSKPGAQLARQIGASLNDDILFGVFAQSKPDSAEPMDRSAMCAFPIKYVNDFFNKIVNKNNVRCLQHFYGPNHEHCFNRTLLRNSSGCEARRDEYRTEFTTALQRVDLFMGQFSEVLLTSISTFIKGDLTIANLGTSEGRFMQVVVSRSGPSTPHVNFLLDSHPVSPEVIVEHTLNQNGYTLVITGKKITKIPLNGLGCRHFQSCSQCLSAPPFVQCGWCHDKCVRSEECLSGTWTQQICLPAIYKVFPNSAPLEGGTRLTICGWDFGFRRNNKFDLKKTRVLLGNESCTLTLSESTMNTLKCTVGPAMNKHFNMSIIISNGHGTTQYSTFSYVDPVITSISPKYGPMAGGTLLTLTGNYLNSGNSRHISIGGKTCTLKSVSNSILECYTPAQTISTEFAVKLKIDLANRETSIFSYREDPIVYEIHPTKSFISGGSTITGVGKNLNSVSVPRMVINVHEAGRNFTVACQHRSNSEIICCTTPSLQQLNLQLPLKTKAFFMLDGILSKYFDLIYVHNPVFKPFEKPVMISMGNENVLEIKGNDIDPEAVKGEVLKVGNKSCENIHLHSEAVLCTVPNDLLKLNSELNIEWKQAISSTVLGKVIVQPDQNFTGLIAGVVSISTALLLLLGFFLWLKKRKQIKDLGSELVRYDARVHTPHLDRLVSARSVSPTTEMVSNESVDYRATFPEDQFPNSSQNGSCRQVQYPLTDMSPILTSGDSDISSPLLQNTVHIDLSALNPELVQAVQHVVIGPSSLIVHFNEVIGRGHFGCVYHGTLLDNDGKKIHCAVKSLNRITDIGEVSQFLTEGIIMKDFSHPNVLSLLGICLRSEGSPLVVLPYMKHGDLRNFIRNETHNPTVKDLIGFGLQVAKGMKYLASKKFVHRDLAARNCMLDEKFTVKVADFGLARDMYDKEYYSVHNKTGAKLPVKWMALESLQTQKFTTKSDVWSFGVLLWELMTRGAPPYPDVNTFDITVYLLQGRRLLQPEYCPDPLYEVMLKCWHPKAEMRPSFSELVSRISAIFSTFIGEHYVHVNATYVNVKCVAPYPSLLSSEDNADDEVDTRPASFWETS
row,Binder,"C-Met Agonist Activity (C50; nM): phospho-c-Met AlphaLISA, A431 cells [nM]"
1,"Peptide complex No. 26 in Table 4 (peptide SEQ ID NO: 22, GFs_c-Met-00014295p; linker SEQ ID NO: 36) (thioether I:N-I:15 (inferred); also: homodimer of two cyclic peptides joined by linker G-K-cPEG9c-K-G, peptide C-terminus on linker) peptide: {CH2CO}-[NMeF]EAVS[NMeF]DSD[Ahp(2)]PRWA[NMeC] GK[CO(CH2CH2O)9CH2CH2CO]KG",0.75
2,"Peptide complex No. 36 in Table 4 (peptide SEQ ID NO: 27, GFs_c-Met-00014302p; linker SEQ ID NO: 36) (thioether I:N-I:15 (inferred); also: homodimer of two cyclic peptides joined by linker G-K-cPEG9c-K-G, peptide C-terminus on linker) peptide: {CH2CO}-[NMeF]QAVS[NMeF]DPD[Ahp(2)]PRWS[NMeC] GK[CO(CH2CH2O)9CH2CH2CO]KG",0.73
3,"Peptide complex No. 24 in Table 4 (peptide SEQ ID NO: 9, GFs_c-Met_0012_4p; linker SEQ ID NO: 36) (thioether I:N-I:15 (inferred); also: homodimer of two cyclic peptides joined by linker G-K-cPEG9c-K-G, peptide C-terminus on linker) peptide: {CH2CO}-[NMeF]VAVS[NMeF]DDD[Ahp(2)]PRWS[NMeC] GK[CO(CH2CH2O)9CH2CH2CO]KG",1.27
4,"Peptide complex No. 29 in Table 4 (peptide SEQ ID NO: 24, GFs_c-Met-00014301p; linker SEQ ID NO: 38) (thioether I:N-I:15 (inferred); also: homodimer of two cyclic peptides joined by linker G-K-cPEG17c-K-G, peptide C-terminus on linker) peptide: {CH2CO}-[NMeF]EAVS[NMeF]DPD[Ahp(2)]PRWS[NMeC] GK[CO(CH2)2(OCH2CH2)17CO]KG",0.88
5,"GFs c-Met-0012-PEG12 dimer (peptide SEQ ID NO: 2, GFs_c-Met_0012p; linker SEQ ID NO: 35) (thioether I:N-I:15 (inferred); also: homodimer: two cyclic peptides joined by linker PEG12c-K-PEG12c, peptide C-terminus on linker) peptide: {CH2CO}-[NMeF]VYVS[NMeF]DDD[Ahp(2)]PRWS[NMeC] [PEG12]-Lys-[PEG12]",0.76
6,"Peptide complex No. 18 in Table 4 (peptide SEQ ID NO: 6, GFs_c-Met_0012_1p; linker SEQ ID NO: 35) (thioether I:N-I:15 (inferred); also: homodimer: two cyclic peptides joined by linker PEG12c-K-PEG12c, peptide C-terminus on linker) peptide: {CH2CO}-[NMeF]TYVS[NMeF]DDD[Ahp(2)]PRWS[NMeC] [PEG12]-Lys-[PEG12]",1.31
7,"Peptide complex No. 30 in Table 4 (peptide SEQ ID NO: 24, GFs_c-Met-00014301p; linker SEQ ID NO: 36) (thioether I:N-I:15 (inferred); also: homodimer of two cyclic peptides joined by linker G-K-cPEG9c-K-G, peptide C-terminus on linker) peptide: {CH2CO}-[NMeF]EAVS[NMeF]DPD[Ahp(2)]PRWS[NMeC] GK[CO(CH2CH2O)9CH2CH2CO]KG",0.81
8,"Peptide complex No. 21 in Table 4 (peptide SEQ ID NO: 13, GFs_c-Met_0012_8p; linker SEQ ID NO: 35) (thioether I:N-I:15 (inferred); also: homodimer: two cyclic peptides joined by linker PEG12c-K-PEG12c, peptide C-terminus on linker) peptide: {CH2CO}-[NMeF]VYVS[NMeF]DDD[hLys]PRWS[NMeC] [PEG12]-Lys-[PEG12]",2.17
9,"Peptide complex No. 27 in Table 4 (peptide SEQ ID NO: 23, GFs_c-Met-00014298p; linker SEQ ID NO: 38) (thioether I:N-I:15 (inferred); also: homodimer of two cyclic peptides joined by linker G-K-cPEG17c-K-G, peptide C-terminus on linker) peptide: {CH2CO}-[NMeF]EAVS[NMeF]DPD[Ahp(2)]PRWA[NMeC] GK[CO(CH2)2(OCH2CH2)17CO]KG",2.37
10,"Peptide complex No. 35 in Table 4 (peptide SEQ ID NO: 27, GFs_c-Met-00014302p; linker SEQ ID NO: 38) (thioether I:N-I:15 (inferred); also: homodimer of two cyclic peptides joined by linker G-K-cPEG17c-K-G, peptide C-terminus on linker) peptide: {CH2CO}-[NMeF]QAVS[NMeF]DPD[Ahp(2)]PRWS[NMeC] GK[CO(CH2)2(OCH2CH2)17CO]KG",0.92
11,"Peptide complex No. 33 in Table 4 (peptide SEQ ID NO: 26, GFs_c-Met-00014299p; linker SEQ ID NO: 38) (thioether I:N-I:15 (inferred); also: homodimer of two cyclic peptides joined by linker G-K-cPEG17c-K-G, peptide C-terminus on linker) peptide: {CH2CO}-[NMeF]QAVS[NMeF]DPD[Ahp(2)]PRWA[NMeC] GK[CO(CH2)2(OCH2CH2)17CO]KG",2.05
12,"Peptide complex No. 23 in Table 4 (peptide SEQ ID NO: 9, GFs_c-Met_0012_4p; linker SEQ ID NO: 38) (thioether I:N-I:15 (inferred); also: homodimer of two cyclic peptides joined by linker G-K-cPEG17c-K-G, peptide C-terminus on linker) peptide: {CH2CO}-[NMeF]VAVS[NMeF]DDD[Ahp(2)]PRWS[NMeC] GK[CO(CH2)2(OCH2CH2)17CO]KG",0.91
13,"Peptide complex No. 19 in Table 4 (peptide SEQ ID NO: 9, GFs_c-Met_0012_4p; linker SEQ ID NO: 35) (thioether I:N-I:15 (inferred); also: homodimer: two cyclic peptides joined by linker PEG12c-K-PEG12c, peptide C-terminus on linker) peptide: {CH2CO}-[NMeF]VAVS[NMeF]DDD[Ahp(2)]PRWS[NMeC] [PEG12]-Lys-[PEG12]",1.22
14,"Peptide complex No. 32 in Table 4 (peptide SEQ ID NO: 25, GFs_c-Met-00014296p; linker SEQ ID NO: 36) (thioether I:N-I:15 (inferred); also: homodimer of two cyclic peptides joined by linker G-K-cPEG9c-K-G, peptide C-terminus on linker) peptide: {CH2CO}-[NMeF]QAVS[NMeF]DSD[Ahp(2)]PRWA[NMeC] GK[CO(CH2CH2O)9CH2CH2CO]KG",0.61
15,"Peptide complex No. 22 in Table 4 (peptide SEQ ID NO: 17, GFs_c-Met_0012_12p; linker SEQ ID NO: 35) (thioether I:N-I:15 (inferred); also: homodimer: two cyclic peptides joined by linker PEG12c-K-PEG12c, peptide C-terminus on linker) peptide: {CH2CO}-[NMeF]VYVS[NMeF]DDD[Ahp(2)]PRWA[NMeC] [PEG12]-Lys-[PEG12]",2.37
16,"Peptide complex No. 31 in Table 4 (peptide SEQ ID NO: 25, GFs_c-Met-00014296p; linker SEQ ID NO: 38) (thioether I:N-I:15 (inferred); also: homodimer of two cyclic peptides joined by linker G-K-cPEG17c-K-G, peptide C-terminus on linker) peptide: {CH2CO}-[NMeF]QAVS[NMeF]DSD[Ahp(2)]PRWA[NMeC] GK[CO(CH2)2(OCH2CH2)17CO]KG",0.68
17,"Peptide complex No. 34 in Table 4 (peptide SEQ ID NO: 26, GFs_c-Met-00014299p; linker SEQ ID NO: 36) (thioether I:N-I:15 (inferred); also: homodimer of two cyclic peptides joined by linker G-K-cPEG9c-K-G, peptide C-terminus on linker) peptide: {CH2CO}-[NMeF]QAVS[NMeF]DPD[Ahp(2)]PRWA[NMeC] GK[CO(CH2CH2O)9CH2CH2CO]KG",1.26
18,"Peptide complex No. 28 in Table 4 (peptide SEQ ID NO: 23, GFs_c-Met-00014298p; linker SEQ ID NO: 36) (thioether I:N-I:15 (inferred); also: homodimer of two cyclic peptides joined by linker G-K-cPEG9c-K-G, peptide C-terminus on linker) peptide: {CH2CO}-[NMeF]EAVS[NMeF]DPD[Ahp(2)]PRWA[NMeC] GK[CO(CH2CH2O)9CH2CH2CO]KG",1.24
19,"Peptide complex No. 20 in Table 4 (peptide SEQ ID NO: 11, GFs_c-Met_0012_6p; linker SEQ ID NO: 35) (thioether I:N-I:15 (inferred); also: homodimer: two cyclic peptides joined by linker PEG12c-K-PEG12c, peptide C-terminus on linker) peptide: {CH2CO}-[NMeF]VYVS[NMeF]DPD[Ahp(2)]PRWS[NMeC] [PEG12]-Lys-[PEG12]",2.22
20,"Peptide complex No. 37 in Table 4 (peptide SEQ ID NO: 28, GFs_c-Met-00014303p; linker SEQ ID NO: 38) (thioether I:N-I:15 (inferred); also: homodimer of two cyclic peptides joined by linker G-K-cPEG17c-K-G, peptide C-terminus on linker) peptide: {CH2CO}-[NMeF]TRVS[NMeF]DSD[Ahp(2)]PRWS[NMeC] GK[CO(CH2)2(OCH2CH2)17CO]KG",0.49
21,"Peptide complex No. 25 in Table 4 (peptide SEQ ID NO: 22, GFs_c-Met-00014295p; linker SEQ ID NO: 38) (thioether I:N-I:15 (inferred); also: homodimer of two cyclic peptides joined by linker G-K-cPEG17c-K-G, peptide C-terminus on linker) peptide: {CH2CO}-[NMeF]EAVS[NMeF]DSD[Ahp(2)]PRWA[NMeC] GK[CO(CH2)2(OCH2CH2)17CO]KG",0.81
22,"Peptide complex No. 38 in Table 4 (peptide SEQ ID NO: 28, GFs_c-Met-00014303p; linker SEQ ID NO: 36) (thioether I:N-I:15 (inferred); also: homodimer of two cyclic peptides joined by linker G-K-cPEG9c-K-G, peptide C-terminus on linker) peptide: {CH2CO}-[NMeF]TRVS[NMeF]DSD[Ahp(2)]PRWS[NMeC] GK[CO(CH2CH2O)9CH2CH2CO]KG",0.65
